Assay results published in patent US20040013674A1 (APOXIS, published 2004).

T1: N-terminally FLAG-tagged full length human TACI, expressed on 293EBNA cells (plasmid pJST552) (human, UniProt O14836 1-293)
T1 construct: also called flag-tagged full length TACI; TACI transfected cells; not shown: N-terminal FLAG tag (and any leader) of the pJST552 insert
T1 sequence: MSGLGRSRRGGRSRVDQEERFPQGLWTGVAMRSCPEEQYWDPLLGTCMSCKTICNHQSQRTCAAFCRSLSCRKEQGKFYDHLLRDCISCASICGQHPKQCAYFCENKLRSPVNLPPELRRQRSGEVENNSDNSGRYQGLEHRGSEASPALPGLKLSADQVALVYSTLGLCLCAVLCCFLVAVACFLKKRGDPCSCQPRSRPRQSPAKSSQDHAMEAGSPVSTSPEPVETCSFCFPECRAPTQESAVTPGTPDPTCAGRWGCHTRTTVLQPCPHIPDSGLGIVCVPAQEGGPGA

B1: myc-tagged murine APRIL (A88), expressed in Pichia pastoris (plasmid pCMM276) (ligand)
chain: EQKLISEEDLNGGGGSKELAVLTQKHKKKHSVLHLVPVNITSKDSDVTEVMWQPVLRRGRGLEAQGDIVRVWDTGIYLLYSQVLFHDVTFTMGQVVSREGQGRRETLFRCIRSMPSDPDRAYNSCYSAGVFHLHQGDIITVKIPRANAKLSLSPHGTFLGFVKL
modifications: glycosylated (as printed in paragraph 69)
notes: also called myc-muAPRIL; Myc-Murine APRIL A88
B2: human TACI(1-160)-Ig fusion protein (plasmid PS882) (Fc fusion)
chain: MSGLGRSRRGGRSRVDQEERFPQGLWTGVAMRSCPEEQYWDPLLGTCMSCKTICNHQSQRTCAAFCRSLSCRKEQGKFYDHLLRDCISCASICGQHPKQCAYFCENKLRSPVNLPPELRRQRSGEVENNSDNSGRYQGLEHRGSEASPALPGLKLSADQV
notes: Used as conditioned medium (Optimem) of 293 cells; also called hTACI(1-160)-Ig; soluble hTACI(1-160)-Ig; not shown: human IgG Fc

What was measured:
[1] = target: T1, N-terminally FLAG-tagged full length …; assay: FACS on 293EBNA cells transfected with pJST552; rabbit anti-murine APRIL and donkey anti-rabbit-PE
Procedure: FIG. 8 is a schematic representation of purified myc-tagged murine APRIL binding to TACI transfected cells. 293EBNA cells were transfected with expression plasmid pJST552 that expressed FLAG-tagged full length human TACI. Cells were harvested 48 hours later using 5 mM EDTA and stained with myc-tagged murine APRIL at various concentrations. No protein control was stained with detection reagents (rabbit anti-murine APRIL and donkey anti-rabbit-PE (Jackson Immnunoresearch)). Staining in FL1 of protein encoded by the cotransfected GFP expression plasmid illustrates expression efficiency.
293EBNA cells were co-transfected with a plasmids expressing full length N-terminally FLAG tagged human TACI (pJST552)(see FIG. 2), and a GFP marker, (AN050). Transfections were performed using Lipofectamine 2000 (LifeTechnologies) according to manufacturer's conditions. Transfection media was DMEM supplemented with 10% FBS, 4 mM glutamine, and 50 μM Z-VAD (BACHEM Bioscience Inc.) Cells were harvested with PBS supplemented with 5 mM EDTA at 24 hours post-transfection. Cells were washed in FACS buffer (PBS-10% FBS-0.02% NaN₃) and resuspended at a density of 5×10⁶ cells/mL. […] The samples were analyzed by FACS and plotted (FIG. 8). Cell gate analyzed is shown as R1. […]

[2] = target: T2, FLAG-tagged soluble muBAFF (murine, UniProt Q9WU72 127-309, limits assumed); assay: co-immunoprecipitation on protein A-Sepharose, anti-FLAG M2 Western blot
T2 construct: not shown: FLAG tag
T2 sequence (Q9WU72 127-309 limits assumed): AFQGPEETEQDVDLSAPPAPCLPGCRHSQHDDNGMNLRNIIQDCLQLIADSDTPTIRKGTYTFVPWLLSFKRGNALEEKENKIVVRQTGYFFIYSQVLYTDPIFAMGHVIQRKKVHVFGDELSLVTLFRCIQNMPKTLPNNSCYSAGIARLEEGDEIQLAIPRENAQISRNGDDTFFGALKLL
Procedure: 250 μl of Optimem containing hTACI(1-160)-Ig was mixed with various FLAG ligands of the TNF family. Some of the ligands were in Optimem while others were anti-FLAG (mAb M2)-purified. The common characteristic was that the amount used was empirically the same (500 ng for purified ligands, i.e. hBAFF, muBAFF, TRAIL, FasL, EDA). Ligands were produced in bacteria (HBAFF, TRAIL) or transiently expressed in 293 EBNA cells (all others). Control Receptors-Fc were mostly used as Optimem supernates, except TNFR1, OX40, LTBR, which were purified over protein-A columns. 1 μg of purified receptors was used. Receptor-Fc proteins (about 1 μg) were mixed with FLAG-ligands (about 500 ng). Volume was adjusted to 1.2 ml with PBS and 5 μl of protein A-Sepharose was added. Incubation was performed for 1 h at 4° C. on a wheel. Beads were harvested by centrifugation and loaded onto a minicolumn (yellow tips with 1 mm diameter frit). Washes were performed by applying vacuum at the bottom of the column to aspirate medium and 2 times 400 μl PBS washes. The dried beads were eluted with 20 μl of Citrate-NaOH pH 2.7 and the eluate was neutralized with 6 μl of 1M Tris-HCl pH 9.0. 10 μl 3x sample buffer plus DTT was added, the sample was boiled and 22 μl loaded for Western blot analysis. […] ECL was used to illuminate the signal. […]

Binder	binding result [1]	binding result [2]
B1	binds	–
B2	–	no binding (tested: 500 ng purified ligand)
